The text below walks through data of US20250388669A1 (published 2025).

Test [1] addresses T1, PD-L1 (human, UniProt Q9NZQ7 19-238, limits assumed).
T1 construct: The reporter assay used Raji cells expressing human PD-L1
Put plainly: FCM or ELISA.

Test [2] has as its target T2, CD137 (human, UniProt Q07011 24-186).
T2 construct: Reporter assays used GS-H2-huCD137 cells expressing human CD137; also called 4-1BB/CD137; huCD137
Put plainly: CD137 binding by FCM or ELISA.

Test [3] deals with T3, CD19 (human, UniProt P15391 20-556).
T3 sequence (looked up): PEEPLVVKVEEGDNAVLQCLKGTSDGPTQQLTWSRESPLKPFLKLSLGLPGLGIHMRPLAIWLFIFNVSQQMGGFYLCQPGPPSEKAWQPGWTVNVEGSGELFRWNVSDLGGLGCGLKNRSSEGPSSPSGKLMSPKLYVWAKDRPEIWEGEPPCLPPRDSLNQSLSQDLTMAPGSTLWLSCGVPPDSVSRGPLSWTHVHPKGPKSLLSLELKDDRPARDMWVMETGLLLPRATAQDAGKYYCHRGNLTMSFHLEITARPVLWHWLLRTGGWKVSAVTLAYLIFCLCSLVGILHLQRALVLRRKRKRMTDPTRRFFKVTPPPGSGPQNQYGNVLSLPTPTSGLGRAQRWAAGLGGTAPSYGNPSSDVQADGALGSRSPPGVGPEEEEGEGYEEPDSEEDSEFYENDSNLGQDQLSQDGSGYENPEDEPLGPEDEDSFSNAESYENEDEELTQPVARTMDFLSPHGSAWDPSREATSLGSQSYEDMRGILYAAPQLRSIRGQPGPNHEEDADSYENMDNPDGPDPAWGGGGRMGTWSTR
Put plainly: cell-based or functional assay.

T1 sequence (Q9NZQ7 19-238 limits assumed): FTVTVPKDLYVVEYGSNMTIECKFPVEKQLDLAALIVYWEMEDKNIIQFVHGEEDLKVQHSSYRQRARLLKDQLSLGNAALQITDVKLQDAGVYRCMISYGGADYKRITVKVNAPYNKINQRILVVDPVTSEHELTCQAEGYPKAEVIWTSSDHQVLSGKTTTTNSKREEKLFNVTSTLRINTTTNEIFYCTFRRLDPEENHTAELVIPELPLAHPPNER

B1: Ly2438 (bispecific antibody)
chain 1: QVQLVQSGAEVKKPGASVKVSCKASGYTFTDFWMSWVRQAPGQGLEWMGQIYPNTGTTHSNEKFKGRVTMTRDTSTSTVYMELSSLRSEDTAVYYCARSYHISTTPNWFAYWGQGTLVTVSSASTKGPSVFPLAPSSKSTSGGTAALGCLVKDYFPEPVTVSWNSGALTSGVHTFPAVLQSSGLYSLSSVVTVPSSSLGTQTYICNVNHKPSNTKVDKKVEPKSCGGGGSGGGGSGGGGSGGGGSEVQLVESGGGLVQPGGSLRLSCAASGFTFTNYGLHWVRQAPGKGLEWVSSISPSGGVTYYRDSVKGRFTISRDNSKNTLYLQMNSLRAEDTAVYYCAKPFLGWGGANWIAHWGQGTLVTVSSGGGGSDKTHTCPPCPAPEAAGPSVFLFPPKPKDTLMISRTPEVTCVVVDVSHEDPEVKFNWYVDGVEVHNAKTKPREEQYNSTYRVVSVLTVLHQDWLNGKEYKCKVSNKALPAPIEKTISKAKGQPREPQVYTLPPSREEMTKNQVSLWCLVKGFYPSDIAVEWESNGQPENNYKTTPPVLDSDGSFFLYSKLTVDKSRWQQGNVFSCSVMHEALHNHYTQKSLSLSPG
chain 2: QVQLVQSGAEVKKPGASVKVSCKASGYTFTDFWMSWVRQAPGQGLEWMGQIYPNTGTTHSNEKFKGRVTMTRDTSTSTVYMELSSLRSEDTAVYYCARSYHISTTPNWFAYWGQGTLVTVSSASTKGPSVFPLAPSSKSTSGGTAALGCLVKDYFPEPVTVSWNSGALTSGVHTFPAVLQSSGLYSLSSVVTVPSSSLGTQTYICNVNHKPSNTKVDKKVEPKSCGGGGSGGGGSGGGGSGGGGSDIQMTQSPSSLSASVGDRVTITCLASEDISNDLAWYQQKPGKAPKLLIYFVDRLLDGVPSRFSGSGSGTDFTLTISSLQPEDFATYYCQQSYKYPPTFGQGTKLEIKGGGGSDKTHTCPPCPAPEAAGPSVFLFPPKPKDTLMISRTPEVTCVVVDVSHEDPEVKFNWYVDGVEVHNAKTKPREEQYNSTYRVVSVLTVLHQDWLNGKEYKCKVSNKALPAPIEKTISKAKGQPREPQVYTLPPSREEMTKNQVSLSCAVKGFYPSDIAVEWESNGQPENNYKTTPPVLDSDGSFFLVSKLTVDKSRWQQGNVFSCSVMHEALHNRFTQKSLSLSPG
light: DIQMTQSPSSLSASVGDRVTITCKASQNVYKKLEWYQQKPGKVPKVLIYHTNILQTGVPSRFSGSGSGTDYTLTISSLQPEDVATYYCYQWNSGPTFGGGTKVEIKRTVAAPSVFIFPPSDEQLKSGTASVVCLLNNFYPREAKVQWKVDNALQSGNSQESVTEQDSKDSTYSLSSTLTLSKADYEKHKVYACEVTHQGLSSPVTKSFNRGEC
notes: PD-L1/CD40: two PD-L1 Fabs (Ly076), central CD40 Fv (TM559)
On to B1, for which the binding result in test [1] is on record as “binds”.

B2: Ly1966 (other)
chain 1: QVQLQQSGAELVRPGSSVKISCKASGYAFSSYWMNWVKQRPGQGLEWIGQIWPGDGDTNYNGKFKGKATLTADESSSTAYMQLSSLASEDSAVYFCARRETTTVGRYYYAMDYWGQGTTVTVSSASTKGPSVFPLAPSSKSTSGGTAALGCLVKDYFPEPVTVSWNSGALTSGVHTFPAVLQSSGLYSLSSVVTVPSSSLGTQTYICNVNHKPSNTKVDKKVEPKSCGGGGSGGGGSGGGGSGGGGSEVQLVESGGGLVQPGGSLRLSCAASGFTFSTYAMNWVRQAPGKGLEWVGRIRSKYNNYATYYADSVKGRFTISRDDSKNSLYLQMNSLKTEDTAVYYCVRHGNFGNSYVSWFAYWGQGTLVTVSSGGGGSDKTHTCPPCPAPEAAGPSVFLFPPKPKDTLMISRTPEVTCVVVDVSHEDPEVKFNWYVDGVEVHNAKTKPREEQYNSTYRVVSVLTVLHQDWLNGKEYKCKVSNKALPAPIEKTISKAKGQPREPQVYTLPPSREEMTKNQVSLWCLVKGFYPSDIAVEWESNGQPENNYKTTPPVLDSDGSFFLYSKLTVDKSRWQQGNVFSCSVMHEALHNHYTQKSLSLSPGGGGGSGGGGSGGGGSGGGGSQVQLVQSGAEVKKPGASVKVSCKASGYTFAGFEMHWVRQAPGQGLEWMGAIDPKTGGTDYNQKFKDRVTMTRDTSISTAYMELSRLRSDDTAVYYCARDLGYFDVWGQGTLVTVSS
chain 2: QVQLQQSGAELVRPGSSVKISCKASGYAFSSYWMNWVKQRPGQGLEWIGQIWPGDGDTNYNGKFKGKATLTADESSSTAYMQLSSLASEDSAVYFCARRETTTVGRYYYAMDYWGQGTTVTVSSASTKGPSVFPLAPSSKSTSGGTAALGCLVKDYFPEPVTVSWNSGALTSGVHTFPAVLQSSGLYSLSSVVTVPSSSLGTQTYICNVNHKPSNTKVDKKVEPKSCGGGGSGGGGSGGGGSGGGGSQAVVTQEPSLTVSPGGTVTLTCRSSTGAVTTSNYANWVQQKPGQAPRGLIGGTNKRAPWTPARFSGSLLGGKAALTITGAQAEDEADYYCALWYSNLWVFGGGTKLTVLGGGGSDKTHTCPPCPAPEAAGPSVFLFPPKPKDTLMISRTPEVTCVVVDVSHEDPEVKFNWYVDGVEVHNAKTKPREEQYNSTYRVVSVLTVLHQDWLNGKEYKCKVSNKALPAPIEKTISKAKGQPREPQVYTLPPSREEMTKNQVSLSCAVKGFYPSDIAVEWESNGQPENNYKTTPPVLDSDGSFFLVSKLTVDKSRWQQGNVFSCSVMHEALHNRFTQKSLSLSPGGGGGSGGGGSGGGGSGGGGSDIQMTQSPSSLSASVGDRVTITCRASQDIRSNLNWYQQKPGGAVKLLIYYTSRLHSGVPSRFSGSGSGTDYTLTISSLQPEDFATYFCQQSEKLPRTFGGGTKVEIR
light: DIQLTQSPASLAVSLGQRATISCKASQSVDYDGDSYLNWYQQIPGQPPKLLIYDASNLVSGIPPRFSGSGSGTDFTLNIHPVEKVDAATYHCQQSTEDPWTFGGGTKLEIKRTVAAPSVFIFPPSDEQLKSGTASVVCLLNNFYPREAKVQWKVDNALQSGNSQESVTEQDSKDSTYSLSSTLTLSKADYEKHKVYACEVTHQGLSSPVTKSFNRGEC
notes: Tri-specific CD19/CD3/CD137: two CD19 Fabs, central CD3 Fv, terminal CD137 Fv
With B2, the binding result in test [2] is on record as “binds”. For the same molecule, the “EC50 of cytotoxicity (LDH release), Raji cells with human PBMCs, 48 hours” value in test [3] was 10.8 pM.

B3: Ly1967 (other)
chain 1: QVQLQQSGAELVRPGSSVKISCKASGYAFSSYWMNWVKQRPGQGLEWIGQIWPGDGDTNYNGKFKGKATLTADESSSTAYMQLSSLASEDSAVYFCARRETTTVGRYYYAMDYWGQGTTVTVSSASTKGPSVFPLAPSSKSTSGGTAALGCLVKDYFPEPVTVSWNSGALTSGVHTFPAVLQSSGLYSLSSVVTVPSSSLGTQTYICNVNHKPSNTKVDKKVEPKSCGGGGSGGGGSGGGGSGGGGSEVQLVESGGGLVQPGGSLRLSCAASGFTFSTYAMNWVRQAPGKGLEWVGRIRSKYNNYATYYADSVKGRFTISRDDSKNSLYLQMNSLKTEDTAVYYCVRHGNFGNSYVSWFAYWGQGTLVTVSSGGGGSDKTHTCPPCPAPEAAGPSVFLFPPKPKDTLMISRTPEVTCVVVDVSHEDPEVKFNWYVDGVEVHNAKTKPREEQYNSTYRVVSVLTVLHQDWLNGKEYKCKVSNKALPAPIEKTISKAKGQPREPQVYTLPPSREEMTKNQVSLWCLVKGFYPSDIAVEWESNGQPENNYKTTPPVLDSDGSFFLYSKLTVDKSRWQQGNVFSCSVMHEALHNHYTQKSLSLSPGGGGGSGGGGSGGGGSGGGGSQVQLVQSGAEVKKPGASVKVSCKASGYTFAGFEMHWVRQAPGQGLEWMGAIDPKTGGTDYNQKFKDRVTMTRDTSISTAYMELSRLRSDDTAVYYCARDLGYFDVWGQGTLVTVSS
chain 2: QVQLQQSGAELVRPGSSVKISCKASGYAFSSYWMNWVKQRPGQGLEWIGQIWPGDGDTNYNGKFKGKATLTADESSSTAYMQLSSLASEDSAVYFCARRETTTVGRYYYAMDYWGQGTTVTVSSASTKGPSVFPLAPSSKSTSGGTAALGCLVKDYFPEPVTVSWNSGALTSGVHTFPAVLQSSGLYSLSSVVTVPSSSLGTQTYICNVNHKPSNTKVDKKVEPKSCGGGGSGGGGSGGGGSGGGGSQAVVTQEPSLTVSPGGTVTLTCRSSTGAVTTSNYANWVQQKPGQAPRGLIGGTNKRAPWTPARFSGSLLGGKAALTITGAQAEDEADYYCALWYSNLWVFGGGTKLTVLGGGGSDKTHTCPPCPAPEAAGPSVFLFPPKPKDTLMISRTPEVTCVVVDVSHEDPEVKFNWYVDGVEVHNAKTKPREEQYNSTYRVVSVLTVLHQDWLNGKEYKCKVSNKALPAPIEKTISKAKGQPREPQVYTLPPSREEMTKNQVSLSCAVKGFYPSDIAVEWESNGQPENNYKTTPPVLDSDGSFFLVSKLTVDKSRWQQGNVFSCSVMHEALHNHYTQKSLSLSPGGGGGSGGGGSGGGGSGGGGSDIQMTQSPSSLSASVGDRVTITCRASQDIRSNLNWYQQKPGGAVKLLIYYTSRLHSGVPSRFSGSGSGTDYTLTISSLQPEDFATYFCQQSEKLPRTFGGGTKVEIR
light: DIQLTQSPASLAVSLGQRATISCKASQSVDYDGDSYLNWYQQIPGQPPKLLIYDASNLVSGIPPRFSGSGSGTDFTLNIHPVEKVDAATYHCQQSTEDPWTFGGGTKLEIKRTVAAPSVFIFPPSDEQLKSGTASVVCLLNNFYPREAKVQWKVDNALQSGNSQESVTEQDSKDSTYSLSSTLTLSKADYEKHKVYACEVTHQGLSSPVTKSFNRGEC
Consider B3, for which the binding result in test [2] was “binds”. The “EC50 of cytotoxicity (LDH release), Raji cells with human PBMCs, 48 hours” value in test [3] turned out to be 8.9 pM.
